Results reported in patent publication US20160272683A1 (Novo Nordisk, published 2016).
Numbered stars: 1 amine (or outer) side, 2 acyl side, 3 side chain; on linkers, the order of the positions; unused ones are H or OH. Ends that are not written are not given here. * marks the point of attachment. C20 diacid = O=C(O)CCCCCCCCCCCCCCCCCCC(=O)*; C18 diacid = O=C(O)CCCCCCCCCCCCCCCCC(=O)*; γGlu = O=C(O)[C@H](CCC(=O)[*:2])N[*:1]

B1: [30S, 31G]mimylin (peptide)
peptide: EASELSTAALGRLSAELHELATLPRTETGSGSP-NH2
notes: backbone without side chain; also called Ex. #22bb; 22bb
B2: [N-terminal(C18 diacid), 2P, 9V]mimylin (peptide)
peptide: {C18 diacid}-EPSELSTAVLGRLSAELHELATLPRTETGPESP-NH2
SMILES: CC(C)C[C@H](NC(=O)[C@H](CCC(=O)O)NC(=O)[C@H](Cc1c[nH]cn1)NC(=O)[C@H](CC(C)C)NC(=O)[C@H](CCC(=O)O)NC(=O)[C@H](C)NC(=O)[C@H](CO)NC(=O)[C@H](CC(C)C)NC(=O)[C@H](CCCNC(=N)N)NC(=O)CNC(=O)[C@H](CC(C)C)NC(=O)[C@@H](NC(=O)[C@H](C)NC(=O)[C@@H](NC(=O)[C@H](CO)NC(=O)[C@H](CC(C)C)NC(=O)[C@H](CCC(=O)O)NC(=O)[C@H](CO)NC(=O)[C@@H]1CCCN1C(=O)[C@H](CCC(=O)O)NC(=O)CCCCCCCCCCCCCCCCC(=O)O)[C@@H](C)O)C(C)C)C(=O)N[C@@H](C)C(=O)N[C@H](C(=O)N[C@@H](CC(C)C)C(=O)N1CCC[C@H]1C(=O)N[C@@H](CCCNC(=N)N)C(=O)N[C@H](C(=O)N[C@@H](CCC(=O)O)C(=O)N[C@H](C(=O)NCC(=O)N1CCC[C@H]1C(=O)N[C@@H](CCC(=O)O)C(=O)N[C@@H](CO)C(=O)N1CCC[C@H]1C(N)=O)[C@@H](C)O)[C@@H](C)O)[C@@H](C)O
notes: also called Ex. #28
B3: [N-terminal(C18 diacid), 3P, 9V]mimylin (peptide)
peptide: {C18 diacid}-EAPELSTAVLGRLSAELHELATLPRTETGPESP-NH2
SMILES: CC(C)C[C@H](NC(=O)[C@H](CCC(=O)O)NC(=O)[C@H](Cc1c[nH]cn1)NC(=O)[C@H](CC(C)C)NC(=O)[C@H](CCC(=O)O)NC(=O)[C@H](C)NC(=O)[C@H](CO)NC(=O)[C@H](CC(C)C)NC(=O)[C@H](CCCNC(=N)N)NC(=O)CNC(=O)[C@H](CC(C)C)NC(=O)[C@@H](NC(=O)[C@H](C)NC(=O)[C@@H](NC(=O)[C@H](CO)NC(=O)[C@H](CC(C)C)NC(=O)[C@H](CCC(=O)O)NC(=O)[C@@H]1CCCN1C(=O)[C@H](C)NC(=O)[C@H](CCC(=O)O)NC(=O)CCCCCCCCCCCCCCCCC(=O)O)[C@@H](C)O)C(C)C)C(=O)N[C@@H](C)C(=O)N[C@H](C(=O)N[C@@H](CC(C)C)C(=O)N1CCC[C@H]1C(=O)N[C@@H](CCCNC(=N)N)C(=O)N[C@H](C(=O)N[C@@H](CCC(=O)O)C(=O)N[C@H](C(=O)NCC(=O)N1CCC[C@H]1C(=O)N[C@@H](CCC(=O)O)C(=O)N[C@@H](CO)C(=O)N1CCC[C@H]1C(N)=O)[C@@H](C)O)[C@@H](C)O)[C@@H](C)O
notes: also called Ex. #29
B4: [N-terminal(C18 diacid), 4P, 9V]mimylin (peptide)
peptide: {C18 diacid}-EASPLSTAVLGRLSAELHELATLPRTETGPESP-NH2
SMILES: CC(C)C[C@H](NC(=O)[C@H](CCC(=O)O)NC(=O)[C@H](Cc1c[nH]cn1)NC(=O)[C@H](CC(C)C)NC(=O)[C@H](CCC(=O)O)NC(=O)[C@H](C)NC(=O)[C@H](CO)NC(=O)[C@H](CC(C)C)NC(=O)[C@H](CCCNC(=N)N)NC(=O)CNC(=O)[C@H](CC(C)C)NC(=O)[C@@H](NC(=O)[C@H](C)NC(=O)[C@@H](NC(=O)[C@H](CO)NC(=O)[C@H](CC(C)C)NC(=O)[C@@H]1CCCN1C(=O)[C@H](CO)NC(=O)[C@H](C)NC(=O)[C@H](CCC(=O)O)NC(=O)CCCCCCCCCCCCCCCCC(=O)O)[C@@H](C)O)C(C)C)C(=O)N[C@@H](C)C(=O)N[C@H](C(=O)N[C@@H](CC(C)C)C(=O)N1CCC[C@H]1C(=O)N[C@@H](CCCNC(=N)N)C(=O)N[C@H](C(=O)N[C@@H](CCC(=O)O)C(=O)N[C@H](C(=O)NCC(=O)N1CCC[C@H]1C(=O)N[C@@H](CCC(=O)O)C(=O)N[C@@H](CO)C(=O)N1CCC[C@H]1C(N)=O)[C@@H](C)O)[C@@H](C)O)[C@@H](C)O
notes: also called Ex. #30
B5: [N-terminal(C20 diacid-gGlu), 2L, 4G, 8L, 9V, 15Q, 21Q, 23Y, 27G, 30S, 31G, 32T, 33Y]mimylin (peptide)
peptide: {C20 diacid-γGlu}-ELSGLSTLVLGRLSQELHELQTYPRTGTGSGTY-NH2
SMILES: CC(C)C[C@H](NC(=O)CNC(=O)[C@H](CO)NC(=O)[C@H](CC(C)C)NC(=O)[C@H](CCC(=O)O)NC(=O)CC[C@H](NC(=O)CCCCCCCCCCCCCCCCCCC(=O)O)C(=O)O)C(=O)N[C@@H](CO)C(=O)N[C@H](C(=O)N[C@@H](CC(C)C)C(=O)N[C@H](C(=O)N[C@@H](CC(C)C)C(=O)NCC(=O)N[C@@H](CCCNC(=N)N)C(=O)N[C@@H](CC(C)C)C(=O)N[C@@H](CO)C(=O)N[C@@H](CCC(N)=O)C(=O)N[C@@H](CCC(=O)O)C(=O)N[C@@H](CC(C)C)C(=O)N[C@@H](Cc1c[nH]cn1)C(=O)N[C@@H](CCC(=O)O)C(=O)N[C@@H](CC(C)C)C(=O)N[C@@H](CCC(N)=O)C(=O)N[C@H](C(=O)N[C@@H](Cc1ccc(O)cc1)C(=O)N1CCC[C@H]1C(=O)N[C@@H](CCCNC(=N)N)C(=O)N[C@H](C(=O)NCC(=O)N[C@H](C(=O)NCC(=O)N[C@@H](CO)C(=O)NCC(=O)N[C@H](C(=O)N[C@@H](Cc1ccc(O)cc1)C(N)=O)[C@@H](C)O)[C@@H](C)O)[C@@H](C)O)[C@@H](C)O)C(C)C)[C@@H](C)O
B6: [N-terminal(C20 diacid-gGlu), des1, 2L, 4Q, 8L, 9V, 15Q, 16R, 19R, 21Q, 23Y, 27Q, 30S, 31Q, 32T, 33Y]mimylin (peptide)
peptide: {C20 diacid-γGlu}-LSQLSTLVLGRLSQRLHRLQTYPRTQTGSQTY-NH2
SMILES: CC(C)C[C@H](NC(=O)CC[C@H](NC(=O)CCCCCCCCCCCCCCCCCCC(=O)O)C(=O)O)C(=O)N[C@@H](CO)C(=O)N[C@@H](CCC(N)=O)C(=O)N[C@@H](CC(C)C)C(=O)N[C@@H](CO)C(=O)N[C@H](C(=O)N[C@@H](CC(C)C)C(=O)N[C@H](C(=O)N[C@@H](CC(C)C)C(=O)NCC(=O)N[C@@H](CCCNC(=N)N)C(=O)N[C@@H](CC(C)C)C(=O)N[C@@H](CO)C(=O)N[C@@H](CCC(N)=O)C(=O)N[C@@H](CCCNC(=N)N)C(=O)N[C@@H](CC(C)C)C(=O)N[C@@H](Cc1c[nH]cn1)C(=O)N[C@@H](CCCNC(=N)N)C(=O)N[C@@H](CC(C)C)C(=O)N[C@@H](CCC(N)=O)C(=O)N[C@H](C(=O)N[C@@H](Cc1ccc(O)cc1)C(=O)N1CCC[C@H]1C(=O)N[C@@H](CCCNC(=N)N)C(=O)N[C@H](C(=O)N[C@@H](CCC(N)=O)C(=O)N[C@H](C(=O)NCC(=O)N[C@@H](CO)C(=O)N[C@@H](CCC(N)=O)C(=O)N[C@H](C(=O)N[C@@H](Cc1ccc(O)cc1)C(N)=O)[C@@H](C)O)[C@@H](C)O)[C@@H](C)O)[C@@H](C)O)C(C)C)[C@@H](C)O

These binders were tested against T1, human calcitonin receptor (human, UniProt P30988 25-474) (assay: whole-cell competition vs 125I-human calcitonin (Assay VIIa)).
T1 construct: whole, on cells; also called hCT-R; hCTR
T1 sequence (looked up): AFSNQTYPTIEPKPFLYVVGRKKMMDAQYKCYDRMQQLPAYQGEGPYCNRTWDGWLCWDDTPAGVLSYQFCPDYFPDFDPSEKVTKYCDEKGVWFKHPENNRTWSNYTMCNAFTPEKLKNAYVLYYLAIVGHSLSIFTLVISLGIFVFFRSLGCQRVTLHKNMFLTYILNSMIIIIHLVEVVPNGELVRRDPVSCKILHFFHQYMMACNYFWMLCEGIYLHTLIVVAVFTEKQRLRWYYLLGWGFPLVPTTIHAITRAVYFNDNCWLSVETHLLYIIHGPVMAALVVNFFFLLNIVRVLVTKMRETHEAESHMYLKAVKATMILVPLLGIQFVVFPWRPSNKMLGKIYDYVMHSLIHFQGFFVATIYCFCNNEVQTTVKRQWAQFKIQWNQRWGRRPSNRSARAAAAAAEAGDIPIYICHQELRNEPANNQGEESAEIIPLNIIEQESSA
Procedure: The binding assay was performed using a BHK tk'ts 13 cell line was stably transfected with the human calcitonin receptor, and a CRE-responsive luciferase reporter gene.
The day before the assay the cells were Seeded into Poly-D-Lysin coated 384W Opaque White, BD BioCoat plates (10000 cells/well) and Incubated overnight at 37° C., 5% CO2, 95% humidity. […] The morning after, the plates were washed three times in HBSS (4° C.), and lyzed in Lysis buffer (0.1 M NaOH), 1% SDS. Scintillation cocktail (MicroScint40®) was added and the plates were shaken at 500 rpm for a short period. The plate was incubated at room temperature in the dark for 1 hour and Read on a TopCounter™ (Packard). The IC₅₀ was calculated using (one site binding competition analysis) GraphPad Prism5 as a measure of receptor affinity.
For EASELSTAALGRLSAELHELATLPRTETGPESP-NH2 (also called Ex. #1) [mimylin], the IC50 was 0.431 nM. B1 showed an IC50 of 0.481 nM. B2 was tested, and the IC50 was 0.351 nM. With B3 the IC50 was 0.309 nM. B4 showed an IC50 of 0.478 nM.

Each binder was assayed against T2, human amylin receptor (human calcitonin receptor + human RAMP3) (human) (UniProt P30988) (assay: whole-cell competition vs 125I-rat amylin (Assay Va)).
T2 sequence (looked up) 1: T1 sequence (looked up)
T2 sequence (looked up) 2: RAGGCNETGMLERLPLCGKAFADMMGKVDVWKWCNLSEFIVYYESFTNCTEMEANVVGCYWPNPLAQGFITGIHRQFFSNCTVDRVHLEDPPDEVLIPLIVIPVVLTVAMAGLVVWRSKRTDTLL
With B5 the IC50 was 2.56 nM. In the case of B6, the IC50 is reported as 10.7 nM. {C18 diacid}-EASELSTAALGRLSAELHELATLPRTETGPESP-OH [[N-terminal(C18 diacid), C-terminal(-)]mimylin] showed an IC50 of 298 nM. In the case of EASELSTAALGRLSAELHELATLPRTETGPESP-OH [[C-terminal(-)]mimylin], the IC50 is reported as 294 nM. Work on ASELTTAVLGRLEAELHELTTLPRTETGTGTP-NH2 [[des1, 6T, 9V, 14E, 21T, 30T, 31G, 32T]mimylin] yielded an IC50 of 71.4 nM. LSGLSTAVLGRLSQELHELQTYPRTETGSQTY-NH2 [[des1, 2L, 4G, 9V, 15Q, 21Q, 23Y, 30S, 31Q, 32T, 33Y]mimylin] showed an IC50 of 1.18 nM. EASELSTAALGRLSAELHELATLPRTETGSGSP-NH2 showed an IC50 of 0.469 nM. ASELSTAALGHLSAELHELATLPRTETGSGSP-NH2 [[des1, 12H, 30S, 31G]mimylin] gave an IC50 of 5.1 nM. In the case of ASEVSTAVLGRLSAELHELATLPRTETGSGSP-NH2 [[des1, 5V, 9V, 30S, 31G]mimylin], the IC50 is reported as 0.982 nM. With ASELTTAVLGRLSAELHELATLPRTETGTGTP-NH2 [[des1, 6T, 9V, 30T, 31G, 32T]mimylin] the IC50 was 20.2 nM.
